Target: T1, full-length Drosophila Hairless (Drosophila melanogaster, UniProt Q02308 1-1077)
T1 construct: Hairless (H), Drosophila melanogaster, full length (pEG-HFL); also called pEG-HFL; source: yeast two-hybrid fusion (EGY48 yeast, pEG202 vector)
T1 sequence (looked up): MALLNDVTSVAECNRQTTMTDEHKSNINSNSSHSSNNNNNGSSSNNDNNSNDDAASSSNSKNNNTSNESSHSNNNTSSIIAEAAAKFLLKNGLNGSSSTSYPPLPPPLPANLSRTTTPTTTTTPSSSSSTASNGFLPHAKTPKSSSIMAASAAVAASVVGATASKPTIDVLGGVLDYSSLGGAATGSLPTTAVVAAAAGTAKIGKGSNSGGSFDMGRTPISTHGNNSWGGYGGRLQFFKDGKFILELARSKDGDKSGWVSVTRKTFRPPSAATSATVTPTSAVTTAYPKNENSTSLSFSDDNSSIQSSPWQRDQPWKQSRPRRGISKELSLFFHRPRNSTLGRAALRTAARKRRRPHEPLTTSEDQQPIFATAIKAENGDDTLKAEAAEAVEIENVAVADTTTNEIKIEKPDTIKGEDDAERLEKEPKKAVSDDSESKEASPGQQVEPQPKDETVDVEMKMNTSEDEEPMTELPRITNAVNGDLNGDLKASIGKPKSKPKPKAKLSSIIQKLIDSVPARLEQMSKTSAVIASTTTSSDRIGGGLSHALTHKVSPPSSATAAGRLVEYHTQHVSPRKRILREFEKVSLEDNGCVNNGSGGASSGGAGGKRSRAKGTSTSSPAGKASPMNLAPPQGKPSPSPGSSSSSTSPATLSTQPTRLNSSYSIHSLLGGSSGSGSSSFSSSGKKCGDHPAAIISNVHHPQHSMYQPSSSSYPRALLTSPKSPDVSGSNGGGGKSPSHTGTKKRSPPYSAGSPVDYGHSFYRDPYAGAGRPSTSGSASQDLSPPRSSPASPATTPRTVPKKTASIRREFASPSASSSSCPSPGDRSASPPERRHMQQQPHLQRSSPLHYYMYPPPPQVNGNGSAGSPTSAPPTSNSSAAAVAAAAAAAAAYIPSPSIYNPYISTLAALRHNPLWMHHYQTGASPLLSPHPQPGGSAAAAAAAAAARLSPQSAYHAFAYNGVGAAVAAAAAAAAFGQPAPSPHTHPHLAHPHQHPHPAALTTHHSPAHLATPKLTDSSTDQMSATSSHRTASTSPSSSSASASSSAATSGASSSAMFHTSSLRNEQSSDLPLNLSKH
Assay: two-hybrid; Golemis-Brent system in EGY48 yeast; H fused to LexA DNA-binding domain in pEG202, CSL variants fused to B42-AD in pJG4-5; lacZ reporter pSH18-34; qualitative, and quantified in Miller Units (six clones from two experiments)
Conditions: partners not purified

- interaction strength relative to that between H and Su(H): ~40%
B1: mouse RBPJ, wild type (natural protein)
chain: not shown
notes: RBPJ, Mus musculus, full-length protein in pJG vector; This is the yeast construct, not the Su(H) exon 1-RBPJ fusion of the flies; also called RBPJ^wt; murine RBPJ; source: yeast two-hybrid fusion (EGY48 yeast, pJG4-5 vector)
